# Results reported in the DeepSol protein solubility set.
# Experiment: soluble on expression in E. coli; label from the status in PepcDB or PDB records
row,Sequence,soluble on expression in E. coli
1,MSLRKEDKAAYRCLKAIKAGEKLTDAPAEDLPDLDLKPLEEMQNIYREHPEALQASVEIAEQCRVDVSLGQTRLPSFPTPDGTSADDYLTDICMEGLRSRFGKPDERYLRRLQYELDVIKRMKFSDYFLIVWDFMKHAHEKGIVTGPGRGSAAGSLVAYVLYITDVDPIKHHLLFERFLNPERVSMPDIDIDFPDTRRDEVIQYVQQKYGAMHVAQIITFGTLAAKAALRDVGRVFGVSPKEADQLAKLIPSRPGMTLDEARQQSPQLDKRLRESSLLQQVYSIARKIEGLPRHASTHAAGVVLSEEPLTDVVPLQEGHEGIYLTQYAMDHLEDLGLLKMDFLGLRNLTLIESITSMIEKEENIKIDLSSISYSDDKTFSLLSKGDTTGIFQLESAGMRSVLKRLKPSGLEDIVAVNALYRPGPMENIPLFIDRKHGRAPVHYPHEDLRSILEDTYGVIVYQEQIMMIASRMAGFSLGEADLLRRAVSKKKKEILDRERSHFVEGCLKKEYSVDTANEVYDLIVKFANYGFNRSHAVAYSMIGCQLAYLKAHYPLYFMCGLLTSEGHHHHHH,not soluble
2,SSQSISPMRSISENSLVAMDFSGQKSRVIENPTEALSVAVEEGLAWRKKGSLRLGTHGS,soluble
3,MTRAKQIILWASLSAMPLIAQASERSDDEIKALVYQAILERPEIILQAVEQLQQAEEAAQAASAHAALTENRDSLFNDPNAPVLGNPEGDVTVVEFFDYNCPYCRRAMAEVQGLVDADPNVRLVYREWPILGEGSDFAARAALAARQQGKYEAFHWALMGMSGKANETGVLRIAREVGLDTEQLQRDMEAPEVTAHIAQSMALAQKLGFNGTPSFVVEDALVPGFVEQSQLQDAVDRARKAAAK,not soluble
4,MSLQGQIDIPLDIVGRWQADQSAYELAKTYYWAKVAHLAEHNDQLAQPTYEGAHLADISEINNAPATARRMLVVSSDLFRAQQTAHAFADLMGLDVELDPRLRERSFGEWEGMTREEICEHYADDYHSWRAHTGGETKHGVESRIHTGRRGAEAVRDIVAKHHDETMPTTLLLVGHGSWIVATVAVLLDMDPDDLNNVGAMRNAFWTRMTPHTDPRNADRPTWKLEEFNQGPAIASEGHHHHHH,soluble
5,MKALLSIEMDMQVPFHDVDSMGITWHGNYLRYFEVARCKLLDELGYNYRQMRASNYAWPIIDVQIKYVKPSTFEQHITVRAELVEWENRLKINYQIRDTATGERITKGYTIQAAVDMTSLEHHHHHH,not soluble
6,PKPLKNLDGQFCEICGDQIGLTVEGDLFVACNECGFPACRPCYEYERREGTQNCPQCKTRYKRLRGSPRVEGDEDEEDID,soluble
7,MSKLIEYDETARRAMEVGMDKLADTVRVTLGPRGRHVVLAKAFGGPTVTNDGVTVAREIELEDPFEDLGAQLVKSVATKTNDVAGDGTTTATILAQALIKGGLRLVAAGVNPIALGVGIGKAADAVSEALLASATPVSGKTGIAQVATVSSRDEQIGDLVGEAMSKVGHDGVVSVEESSTLGTELEFTEGIGFDKGFLSAYFVTDFDNQQAVLEDALILLHQDKISSLPDLLPLLEKVAGTGKPLLIVAEDVEGEALATLVVNAIRKTLKAVAVKGPYFGDRRKAFLEDLAVVTGGQVVNPDAGMVLREVGLEVLGSARRVVVSKDDTVIVDGGGTAEAVANRAKHLRAEIDKSDSDWDREKLGERLAKLAGGVAVIKVGAATETALKERKESVEDAVAAAKAAVEEGIVPGGGASLIHQARKALTELRASLTGDEVLGVDVFSEALAAPLFWIAANAGLDGSVVVNKVSELPAGHGLNVNTLSYGDLAADGVIDPVKVTRSAVLNASSVARMVLTTETVVVDKPAKAEDHDHHHGHAH,soluble
8,MSLEDQALFGYARYGKVDDVVYPSVIASGNGINYGDSDIEILGDRIPRQILYPAKIKQEILETDKLVIIPNGAELVRKPKDLVRIIMDIHSRYGFSKLIMISGISDPYSIPALVYLGISFFDSSILEMEGKMGYRFTPFGIEKADHDVSSENAIFISDMMHIIQRSISDGTLRELIEKAVISSKAAEMVRIADYSYYQDFESVFPVRTPYIKANTIEDLYRPDLIRYRNYISESYVKPDADIALILPCSAKKPYSRSKSHQKVIGALGNLRRFIHEVIVTSPIGIVPRDLEETYPARFYDIPVIGLWYEDEKIMMKRMMSSYMGRNRYRKVIAFIPEDLDFITEAIPYPHEVIEFKSSNLQRLREVIQREIAGGKAVNQKVAKYNSILRYQFGEWILPLVSGYTIRRNYNQDMIVKDGKILFVYNENLGKFTINKASADMFIKNGKFLVEIDDFKPTSNVYAMGVVDATEDIRQEDEVVLVHSGEVRGVGIAKMPARAMIELKKGIAVKVREGHHHHHH,soluble
9,MSLITLYHCHGARSFRPLWMLEEMGLDYELKMLPFPPRVFAKEYLAINPLGTIPFMIDGDTKMTESSGICQYLGTRHGPTPLVVGVDDPAYGAYLNWMFFSDATLTFPQTLVLRYGTLEPNERRQPQVVEDYAKWFLGRLRAVEVAAGQGDYLCAGRFTAADVVNGYALRLASNLGLAKDFGPNVTAYWARLQQRDGYQRALEAETRAGEAQQVPKRAEGHHHHHH,soluble
10,MISIPVAQQQKLPRLVLPRVYGFPPNRETLGGTAYLIVENDGNTLIDSPPWTDGSQHWLREQGGVKRLILTHRGAIARVRAIQDTFDCEVMIHAQEAYLLPQVTVTPFNHHLAIGETLEILWTPGHSPGSACVYWSCQGGVLFTGRHLLPTPTGELAPIKTATTFHWPRQLRSVEALKAFCRQKSLSYLCPGANMGFLRGTLAIANAQAVLQGLSVDNLLCDKFLEHHHHHH,not soluble
11,AKQDYYEILGVSKTAEEREIRKAYKRLAMKYHPDRNQGDKEAEAKFKEIKEAYEVLTDSQKRAAYDQYGHAAFEQGGMGGGGFGGGADFSDIFGDVFGDIFGGGRGR,soluble
12,MPDELKPHFANVQAHYDLSDDFFRLFLDPTQTYSCAYFERDDMTLQEAQIAKIDLALGKLGLQPGMTLLDVGCGWGATMMRAVEKYDVNVVGLTLSKNQANHVQQLVANSENLRSKRVLLAGWEQFDEPVDRIVSIGAFEHFGHERYDAFFSLAHRLLPADGVMLLHTITGLHPKEIHERGLPMSFTFARFLKFIVTEIFPGGRLPSIPMVQECASANGFTVTRVQSLQPHYAKTLDLWSAALQANKGQAIALQSEEVYERYMKYLTGCAEMFRIGYIDVNQFTCQK,soluble
13,SLGKILSKTAIAIVLASGLLSACTSTTDVFHNGYVMDDQSLQLIPEGSSREQVLLTMGTPSTTATFGNEVFYYISQKRVRRAAFLKPSLVEQNILAIYFNKDGVIERKANYTLQDGKVFDSISRTTPTGGKDLTFLQQLLSGGTSGANIAKS,soluble
14,MGKKAKLGHKTGVNKGILLTDRQRLNWLRLLRSENIGAVSFRNLIDHYKTAENALAALPELSRKGGLATSIRIATLEDAEKEMQEAEKLGIRFVGIGEPDYPTFLKVTEASPPLIAIKGNVSVFEKASVGIVGSRNASAAGKKLAAQFAHFLGNADFTIISGLARGIDSIAHQASLQTGTVAVMAGGIDHIYPPENKKLHEDIIANGGAIISEMPIGWKPRAIDFPRRNRIIAGLSLGLLVVEAALQSGSLITARQAAEMGRLTFAIPGSPLDPRSVGTNNLLKDGALLTTHPSDIIETLTPLIPTPTNHQLNFFEELPSLQLEKDCFNSSDKKTKITSFVGDERERRAVLSALSTTPIDLDTLSTNSGVSLSNLYLLLVELELAGKLIRHSGGYVSLSNFDLLQEPPHY,not soluble
15,MTVDSIPLNTGAQLPLFGLGTWQVKDEAELTVALRAALDAGYRLIDTAHLYQNEHIIGKVLHEYISSGKLKREDIFVTSKLPFTAHAPEDVPKCVESQLKALQLEYIDLYLIHCPFPFKHQEGSFAPLMENGELAVTEIAHIDTWRALEKLYKEGKLKALGVSNFSCNQLQALYDAAEVKPANQQVECHIYWPQQELRALCKKLGVTVTAYAPLGSPGRKAARPDGVWPEGDPLLEPIVKQLAAKYHKTAAQILIRHLTQHGISTIPKSVSPDRIVENISTFDFKLSDEDMHTLNSIETRTRLFIADFAVKHPFFPHDDIDTSKVPKVGIRLH,soluble
16,MGSSHHHHHHSSGLVPRGSHMMRKQRIVIKISGACLKQNDSSIIDFIKINDLAEQIEKISKKYIVSIVLGGGNIWRGSIAKELDMDRNLADNMGMMATIINGLALENALNHLNVNTIVLSAIKCDKLVHESSANNIKKAIEKEQVMIFVAGTGFPYFTTDSCAAIRAAETESSIILMGKNGVDGVYDSDPKINPNAQFYEHITFNMALTQNLKVMDATALALCQENNINLLVFNIDKPNAIVDVLEKKNKYTIVSK,soluble
17,MGSDKIHHHHHHMPYSLHLPGYSIGDNAYEKIDAIVSTYGSSVAVIGGKTALEKSRPRLEAALAHSGIEVVDWIVYGHNCTYERVDALCGMPTVQQADMIFGVGGGRAVDTVKVVANRLGKPLFAFPTLGSNCAAATNLSVVYKDDDSLAGYDFQRGPCHHVFIDTTVIAQSPAELLWAGIADGMSKECEVKLQSRGRNLSHAPLMGRNVCSAVTPALMDFGLQALEDCRAGRSSQAIEEVALAIIMTCGYVSNMAVDPGQAYYYNSSLAHAFYNSSTAFPECVGKHLHGEIVSYGVLALLQYDGDMETKRRYVEFYKQMGFPLTLADLDLQESDIPELVSHVPATTEWKTGDFDLERFAQAIIDAQVFA,not soluble
18,MNELREKDESYRSFLLLSAISSEEPLSQREIARQVGIALGLVNSYLKHLVDKGFVRIKSFPRNRYAYLLTPRGLAEKSRLAYEHLSSFTTLFRVARQDYLALFRALKTQGVGRVAFCGVDEVAEIAYLSLREVGLELALVMDQATDGREFFGKPVVSIPHGLLAGNHHIVITTFKRREALREELLQRGVASELLHQAGEPAGETQSIREEHP,not soluble
19,MSLNEAGIVLLPKSRQLPALSMIDQNGAAVALDGLKDQWTLMFFGYTFCPDICPTTLAQIKQIRSELPTAAVERMRVVLVSVDPNRDTPQQLKEYLSYFDPQYIGLTAPVADIQKLANSVSIPFIPADTSKPNYFVDHSGNLALIGPDGTQRGFIRAPLNNQKLVKQLPRLLERDEGHHHHHH,soluble
20,AHHHHHHGSKTLKVYIPGIKFPSISVTGNYCALNCAHCGRHYLEGMKKITRLNLVDKCVEMEKEGYVGCLLSGGMDSRLKVPLDKFKDEIREIKEKTRLKINAHVGFIDEDDLEWLKYIDVVSLDFVGDNEVIKRVYKIDKTVNDYLKILDILTKERIKVAPHITIGLDFGRIHWEYEAIDLLSEYPIDVLVLNILIPTPGTEMENVKVSMEEALNVVRYAREEFKGELSIGCMRPFGRWREEFDKRAILIGVDRITNPPRKVIEWAKQFRKVEIHFECCVI,not soluble
21,MRVYGRKILEEALRNNVPIKKVFFQKMKNPGSYFLSLVKEVEKRGIKYSFESEERLKNLSGTKKHQGVVFDIGEYRYSSVEEILEAKTPPLIVLLDQIQDPHNLGAIVRTSVGAGANGIIIPKDKSVKVTETVVKVSAGTVFRARIAVVTNLARTIEELKEKGVWTYASDIDGTPIYEEDFTFPTAFVFGNEGEGIRRLVREKCDRVVTIPMENDIDSLNVSVSVGVVLFEAVRQRRMKGAG,soluble
22,MSLANGIEFNQNPASVFNSNSLDFELESQQLTQKNSSNTSSPLINLQNELAMITSSSLSETIEGLSLGYRKGSARKEEEGTTIEKLLNEMQELLTLTDSDKIKELSLKNSGLLEQHDPTLAMFGNMPKGEIVALISSLLQSKFVKIELKKKYAKLLLDLLGEDDWELALLSWLGVGELNQEGIQKIKKLYEKAKDEDSENGASLLDWFMEIKDLPEREKHLKVIIRALSFDLSYMSSFEDKVRTSSIISDLCRIIIFLSLNNYTDIIAISIKKDKDVILNEMLSIIEHVWLTEDWLLESPSRVSIVEDKHVYYFHLLKEFFASLPDACFIDNEQRSNTLLMIGKVIDYKEDVMEGHHHHHH,soluble
